Data taken from patent publication US20240287484.

How the values were obtained:
Conditions in all cases: qPCR; 3 mM MgCl2, 37 C
[1] = tested on: T1, MG153-7 RT (uncultivated organism (metagenomic))
T1 sequence: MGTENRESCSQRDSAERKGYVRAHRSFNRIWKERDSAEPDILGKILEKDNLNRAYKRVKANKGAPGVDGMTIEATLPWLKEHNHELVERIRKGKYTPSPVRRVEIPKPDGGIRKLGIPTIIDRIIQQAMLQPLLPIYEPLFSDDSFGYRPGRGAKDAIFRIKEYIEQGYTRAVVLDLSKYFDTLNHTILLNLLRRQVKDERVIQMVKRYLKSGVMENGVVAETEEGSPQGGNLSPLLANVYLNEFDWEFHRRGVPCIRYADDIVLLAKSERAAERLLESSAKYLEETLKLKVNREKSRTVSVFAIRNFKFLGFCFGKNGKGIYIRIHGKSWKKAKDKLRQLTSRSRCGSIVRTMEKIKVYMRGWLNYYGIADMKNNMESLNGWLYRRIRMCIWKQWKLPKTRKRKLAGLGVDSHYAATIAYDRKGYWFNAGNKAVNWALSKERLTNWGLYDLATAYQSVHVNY

[2] = tested on: T2, MG153-25 RT (uncultivated organism (metagenomic))
T2 sequence: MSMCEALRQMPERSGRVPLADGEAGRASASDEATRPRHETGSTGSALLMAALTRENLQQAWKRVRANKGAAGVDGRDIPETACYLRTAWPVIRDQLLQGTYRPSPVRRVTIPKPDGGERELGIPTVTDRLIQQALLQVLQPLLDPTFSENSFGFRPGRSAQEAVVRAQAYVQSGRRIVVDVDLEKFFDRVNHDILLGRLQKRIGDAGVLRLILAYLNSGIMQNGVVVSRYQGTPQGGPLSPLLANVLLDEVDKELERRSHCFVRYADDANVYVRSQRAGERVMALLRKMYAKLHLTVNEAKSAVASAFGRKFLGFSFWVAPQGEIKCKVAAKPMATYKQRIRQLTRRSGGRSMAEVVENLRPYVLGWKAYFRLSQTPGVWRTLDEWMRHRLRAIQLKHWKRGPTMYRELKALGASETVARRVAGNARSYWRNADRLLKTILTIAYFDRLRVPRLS

[3] = tested on: T3, MG153-43 RT (uncultivated organism (metagenomic))
T3 sequence: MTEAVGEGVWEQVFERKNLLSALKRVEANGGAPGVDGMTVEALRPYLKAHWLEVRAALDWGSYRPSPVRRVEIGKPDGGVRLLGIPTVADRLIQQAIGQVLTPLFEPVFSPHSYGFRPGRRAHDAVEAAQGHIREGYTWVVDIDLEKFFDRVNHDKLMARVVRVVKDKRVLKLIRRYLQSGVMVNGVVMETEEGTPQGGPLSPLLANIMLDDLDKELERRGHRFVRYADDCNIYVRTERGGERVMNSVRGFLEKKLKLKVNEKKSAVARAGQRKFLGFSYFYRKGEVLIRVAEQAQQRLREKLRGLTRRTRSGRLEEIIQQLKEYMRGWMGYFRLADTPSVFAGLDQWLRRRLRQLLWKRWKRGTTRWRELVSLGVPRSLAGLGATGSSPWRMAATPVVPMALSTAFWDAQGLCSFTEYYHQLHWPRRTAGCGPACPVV

[4] = tested on: T4, MG153-39 RT (uncultivated organism (metagenomic))
T4 sequence: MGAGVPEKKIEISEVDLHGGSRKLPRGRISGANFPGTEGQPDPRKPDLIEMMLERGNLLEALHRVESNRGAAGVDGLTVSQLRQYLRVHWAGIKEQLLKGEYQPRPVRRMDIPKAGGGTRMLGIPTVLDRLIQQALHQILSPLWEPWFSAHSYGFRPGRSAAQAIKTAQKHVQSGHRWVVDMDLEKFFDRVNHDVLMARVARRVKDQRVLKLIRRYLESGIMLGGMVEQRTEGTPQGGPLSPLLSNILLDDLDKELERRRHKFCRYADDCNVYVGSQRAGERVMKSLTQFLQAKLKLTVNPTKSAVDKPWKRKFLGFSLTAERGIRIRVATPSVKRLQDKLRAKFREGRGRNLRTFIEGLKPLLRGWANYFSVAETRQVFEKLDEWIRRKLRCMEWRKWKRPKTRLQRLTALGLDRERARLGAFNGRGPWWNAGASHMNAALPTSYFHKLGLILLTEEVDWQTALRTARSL

[5] = tested on: T5, MG153-11 RT (uncultivated organism (metagenomic))
T5 sequence: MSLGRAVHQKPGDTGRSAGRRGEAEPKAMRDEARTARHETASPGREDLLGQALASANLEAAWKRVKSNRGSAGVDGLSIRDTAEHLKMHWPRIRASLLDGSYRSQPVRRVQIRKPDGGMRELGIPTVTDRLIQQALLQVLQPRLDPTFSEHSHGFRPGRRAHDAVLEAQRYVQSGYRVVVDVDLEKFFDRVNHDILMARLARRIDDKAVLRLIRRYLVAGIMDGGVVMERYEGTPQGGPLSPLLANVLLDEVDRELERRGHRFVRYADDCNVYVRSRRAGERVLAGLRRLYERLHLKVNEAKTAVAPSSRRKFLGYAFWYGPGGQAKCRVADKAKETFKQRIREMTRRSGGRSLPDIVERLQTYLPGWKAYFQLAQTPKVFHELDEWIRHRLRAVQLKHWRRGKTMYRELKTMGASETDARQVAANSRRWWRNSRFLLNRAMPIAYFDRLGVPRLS

[6] = tested on: T6, MG153-32 RT (uncultivated organism (metagenomic))
T6 sequence: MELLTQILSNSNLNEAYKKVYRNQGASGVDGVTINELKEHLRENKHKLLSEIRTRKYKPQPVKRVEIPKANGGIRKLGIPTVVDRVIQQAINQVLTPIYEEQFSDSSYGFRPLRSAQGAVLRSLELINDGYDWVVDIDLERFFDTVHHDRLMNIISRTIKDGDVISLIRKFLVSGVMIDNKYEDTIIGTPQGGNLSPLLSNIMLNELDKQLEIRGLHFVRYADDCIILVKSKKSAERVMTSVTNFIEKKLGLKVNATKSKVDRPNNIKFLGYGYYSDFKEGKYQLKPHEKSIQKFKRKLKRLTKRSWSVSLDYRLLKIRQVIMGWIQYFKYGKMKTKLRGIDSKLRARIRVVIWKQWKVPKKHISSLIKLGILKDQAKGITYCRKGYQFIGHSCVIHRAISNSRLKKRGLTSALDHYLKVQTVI

Measured: activity (fold over background)

200 nt RNA template annealed to DNA primer
> 10: all assays above
